Experimental findings from publication PMC7375240, “Covalent Inhibitors Allosterically Block the Activation of Rho Family Proteins and Suppress Cancer Cell Invasion” (Advanced Science, 2020) are described below.

One test has as its target Rac1 (human, UniProt P63000 1-192). The experiment in a line: pull-down; (His)6-tagged GTPase held on nickel beads, 2 µg GST-tagged partner added; 20 mM HEPES pH 7.4, 150 mM NaCl, 5 mM MgCl2, 40 mM imidazole, 4 °C, 1 h; GST-tagged protein detected by anti-GST western blot; samples without effect of DC-Rhoin. Conditions: both partners purified.
The target in test [1] is T1, RalGPS1 (residues 24-289) (human, UniProt Q5JS13 24-289).
T1 construct: RalGPS1, human, residues 24-289; also called respective GEF of Ral-B (pairing inferred); source: E. coli BL21 (DE3), purified (GSTTrap, Superdex 75)
T1 sequence (Q5JS13 24-289): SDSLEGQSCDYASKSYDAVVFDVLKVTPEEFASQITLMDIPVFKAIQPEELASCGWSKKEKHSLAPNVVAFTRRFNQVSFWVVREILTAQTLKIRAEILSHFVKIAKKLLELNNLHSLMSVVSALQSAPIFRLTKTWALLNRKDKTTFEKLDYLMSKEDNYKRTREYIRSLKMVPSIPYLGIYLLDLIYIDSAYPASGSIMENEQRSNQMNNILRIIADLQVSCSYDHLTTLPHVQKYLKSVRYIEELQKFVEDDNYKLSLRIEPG
Described as above. Conditions: both partners purified.

B1: Tiam1 (residues 1033-1406) (domain or fragment)
chain: RQLSDADKLRKVICELLETERTYVKDLNCLMERYLKPLQKETFLTQDELDVLFGNLTEMVEFQVEFLKTLEDGVRLVPDLEKLEKVDQFKKVLFSLGGSFLYYADRFKLYSAFCASHTKVPKVLVKAKTDTAFKAFLDAQNPRQQHSSTLESYLIKPIQRVLKYPLLLRELFALTDAESEEHYHLDVAIKTMNKVASHINEMQKIHEEFGAVFDQLIAEQTGEKKEVADLSMGDLLLHTSVIWLNPPASLGKWKKEPELAAFVFKTAVVLVYKDGSKQKKKLVGSHRLSIYEEWDPFRFRHMIPTEALQVRALPSADAEANAVCEIVHVKSESEGRPERVFHLCCSSPESRKDFLKSVHSILRDKHRRQLLKTE
notes: Tiam1, murine, residues 1033-1406; The text says only 'their respective GEFs'; that this construct was the GEF used with Rac1 is inferred from the list of constructs; also called respective GEF of Rac1 (pairing inferred); source: E. coli BL21 (DE3), purified (GSTTrap, Superdex 75)
As for B1, the binding result with Rac1 is “binds”.

B2: Ral-B (natural protein, human, UniProt P11234 1-206, looked up)
chain: MAANKSKGQSSLALHKVIMVGSGGVGKSALTLQFMYDEFVEDYEPTKADSYRKKVVLDGEEVQIDILDTAGQEDYAAIRDNYFRSGEGFLLVFSITEHESFTATAEFREQILRVKAEEDKIPLLVVGNKSDLEERRQVPVEEARSKAEEWGVQYVETSAKTRANVDKVFFDLMREIRTKKMSENKDKNGKKSSKNKKSFKERCCLL
notes: RalB, human, full length, in pET28a with a TEV site; source: E. coli BL21 (DE3), purified (HisTrap FF, Superdex 75)
As for B2, in test [1], the binding result was “binds”.
